How the values were obtained:
Experiment in all cases: HLA class II competition binding assay
HLA DRB1*0301 = HLA DRB1*0301 (human)
HLA DRB1*1301 = HLA DRB1*1301 (human)
HLA DRB1*1101 = HLA DRB1*1101 (human)
HLA DRB1*0101 = HLA DRB1*0101 (human)
HLA DRB1*0401 = HLA DRB1*0401 (human)
HLA DRB1*0701 = HLA DRB1*0701 (human)
HLA DRB1*1501 = HLA DRB1*1501 (human)

B1: SEQ ID NO 114 (peptide)
peptide: EEQYNSTYTVVSVLTVLHQD
IC50 (HLA DRB1*0301): 1.57 µM
IC50 (HLA DRB1*1301): 1.86 µM
IC50 (HLA DRB1*1101): 0.084 µM
IC50 (HLA DRB1*0101): 0.019 µM
IC50 (HLA DRB1*0401): 1.21 µM
IC50 (HLA DRB1*0701): 0.115 µM
IC50 (HLA DRB1*1501): 2.11 µM

— patent publication US20240173377A1 (published 2024)
